The target in one assay is T1, HCV proteins (Hepatitis C virus genotype 1b, UniProt Q9WMX2).
T1 construct: expressed in transfected cells
Briefly: Validation by Y2H pairwise matrices.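 Also: yeast two-hybrid pairwise tests of interactions first found in Y2H screens of HCV bait proteins against human cDNA libraries.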 Type of assay: binding. To be noted: validation of interaction with HCV protein NS3.

Assay [1] has as its system HCV ORFs (Gal4-DB fusions). Type of assay: binding, HCV genotype 1b, isolate con1. To be noted: human protein listed by gene symbol; the value names the HCV protein it interacts with.
Assay [2] has as its target T2, HCV ORFs (Gal4-DB fusions) (Hepatitis C virus genotype 1b, UniProt Q9WMX2).
T2 construct: expressed in transfected cells; host or cells: Saccharomyces cerevisiae MAV203 (IMAP1) / AH109 (IMAP2)
The format is binding, HCV genotype 1b, isolate con1. The note with it: HCV protein NS3 as bait; human protein as prey.
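For IMAP Y2H IMAP1 (number of IST) in this document: yeast two-hybrid screens using HCV genotype 1b proteins fused to Gal4-DB as baits against prey cDNA libraries from human spleen and foetal brain, IMAP1 via transformation and IMAP2 via mating.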
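For IMAP Y2H IMAP2 (number of IST) in this document: yeast two-hybrid screens using HCV genotype 1b proteins fused to Gal4-DB as baits against prey cDNA libraries from human spleen and foetal brain, IMAP1 via transformation and IMAP2 via mating.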
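For Interaction with viral protein in this document: yeast two-hybrid screens using HCV genotype 1b proteins fused to Gal4-DB as baits against prey cDNA libraries from human spleen and foetal brain, IMAP1 via transformation and IMAP2 via mating.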

T1 sequence (Q9WMX2 1027-1657): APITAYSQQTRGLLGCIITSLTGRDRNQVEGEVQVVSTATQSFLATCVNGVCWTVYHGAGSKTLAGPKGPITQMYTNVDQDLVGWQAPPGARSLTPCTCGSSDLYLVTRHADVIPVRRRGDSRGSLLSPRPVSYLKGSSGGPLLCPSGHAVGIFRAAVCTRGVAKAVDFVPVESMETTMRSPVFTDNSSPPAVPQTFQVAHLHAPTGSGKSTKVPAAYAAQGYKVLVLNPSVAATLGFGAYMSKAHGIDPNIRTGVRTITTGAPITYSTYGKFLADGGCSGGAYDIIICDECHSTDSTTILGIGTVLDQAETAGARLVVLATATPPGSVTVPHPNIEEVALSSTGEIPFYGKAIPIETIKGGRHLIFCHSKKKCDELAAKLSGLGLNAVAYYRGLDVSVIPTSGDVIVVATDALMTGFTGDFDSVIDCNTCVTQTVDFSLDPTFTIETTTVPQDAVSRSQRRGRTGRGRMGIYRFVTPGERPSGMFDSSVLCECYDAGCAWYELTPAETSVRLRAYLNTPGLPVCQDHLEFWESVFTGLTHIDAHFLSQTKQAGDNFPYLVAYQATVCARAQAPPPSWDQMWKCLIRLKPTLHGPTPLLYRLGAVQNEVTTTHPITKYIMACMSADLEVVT
T2 sequence (Q9WMX2 1027-1657): as above
Description for HCV proteins: A comprehensive interactome map between HCV and cellular proteins was generated by Y2H screens. Twenty seven constructs encoding full-length HCV mature proteins or discrete domains were cloned using a recombination-based cloning system (10) (FIG. 6). Four independent screens were performed with each HCV bait protein, probing two distinct human cDNA libraries (Supplementary Methods). […] Two validation methods were used to assess the confidence of the IMAP Y2H dataset.

B1: NUP62 (protein, UniProt P37198 2-522, looked up)
Nuclear pore glycoprotein p62: SGFNFGGTGAPTGGFTFGTAKTATTTPATGFSFSTSGTGGFNFGAPFQPATSTPSTGLFSLATQTPATQTTGFTFGTATLASGGTGFSLGIGASKLNLSNTAATPAMANPSGFGLGSSNLTNAISSTVTSSQGTAPTGFVFGPSTTSVAPATTSGGFSFTGGSTAQPSGFNIGSAGNSAQPTAPATLPFTPATPAATTAGATQPAAPTPTATITSTGPSLFASIATAPTSSATTGLSLCTPVTTAGAPTAGTQGFSLKAPGAASGTSTTTSTAATATATTTSSSSTTGFALNLKPLAPAGIPSNTAAAVTAPPGPGAAAGAAASSAMTYAQLESLINKWSLELEDQERHFLQQATQVNAWDRTLIENGEKITSLHREVEKVKLDQKRLDQELDFILSQQKELEDLLSPLEELVKEQSGTIYLQHADEEREKTYKLAENIDAQLKRMAQDLKDIIEHLNTSGAPADTSDPLQQICKILNAHMDSLQWIDQNSALLQRKVEEVTKVCEGRRKEQERSFRITFD
Turning to B1, the Y2H matrices result with HCV proteins is listed as “+”. Also, the “Interaction with viral protein” value in assay [1] is on record as “NS3”. Besides, the “IMAP Y2H IMAP1 (number of IST)” value in assay [2] is 3.

B2: NELL1 (protein, UniProt Q92832 22-810, looked up)
Protein kinase C-binding …: FGMDPDLQMDIVTELDLVNTTLGVAQVSGMHNASKAFLFQDIEREIHAAPHVSEKLIQLFRNKSEFTILATVQQKPSTSGVILSIRELEHSYFELESSGLRDEIRYHYIHNGKPRTEALPYRMADGQWHKVALSVSASHLLLHVDCNRIYERVIDPPDTNLPPGINLWLGQRNQKHGLFKGIIQDGKIIFMPNGYITQCPNLNHTCPTCSDFLSLVQGIMDLQELLAKMTAKLNYAETRLSQLENCHCEKTCQVSGLLYRDQDSWVDGDHCRNCTCKSGAVECRRMSCPPLNCSPDSLPVHIAGQCCKVCRPKCIYGGKVLAEGQRILTKSCRECRGGVLVKITEMCPPLNCSEKDHILPENQCCRVCRGHNFCAEGPKCGENSECKNWNTKATCECKSGYISVQGDSAYCEDIDECAAKMHYCHANTVCVNLPGLYRCDCVPGYIRVDDFSCTEHDECGSGQHNCDENAICTNTVQGHSCTCKPGYVGNGTICRAFCEEGCRYGGTCVAPNKCVCPSGFTGSHCEKDIDECSEGIIECHNHSRCVNLPGWYHCECRSGFHDDGTYSLSGESCIDIDECALRTHTCWNDSACINLAGGFDCLCPSGPSCSGDCPHEGGLKHNGQVWTLKEDRCSVCSCKDGKIFCRRTACDCQNPSADLFCCPECDTRVTSQCLDQNGHKLYRSGDNWTHSCQQCRCLEGEVDCWPLTCPNLSCEYTAILEGECCPRCVSDPCLADNITYDIRKTCLDSYGVSRLSGSVWTMAGSPCTTCKCKNGRVCCSVDFECLQNN
Take B2: the Y2H matrices result with HCV proteins was “+”. Further, in assay [1], the “Interaction with viral protein” value is “NS3”. In assay [2], the “IMAP Y2H IMAP1 (number of IST)” value was 3.

B3: N-PAC (protein, UniProt Q49A26 1-553, looked up)
Cytokine-like nuclear factor …: MAAVSLRLGDLVWGKLGRYPPWPGKIVNPPKDLKKPRGKKCFFVKFFGTEDHAWIKVEQLKPYHAHKEEMIKINKGKRFQQAVDAVEEFLRRAKGKDQTSSHNSSDDKNRRNSSEERSRPNSGDEKRKLSLSEGKVKKNMGEGKKRVSSGSSERGSKSPLKRAQEQSPRKRGRPPKDEKDLTIPESSTVKGMMAGPMAAFKWQPTASEPVKDADPHFHHFLLSQTEKPAVCYQAITKKLKICEEETGSTSIQAADSTAVNGSITPTDKKIGFLGLGLMGSGIVSNLLKMGHTVTVWNRTAEKCDLFIQEGARLGRTPAEVVSTCDITFACVSDPKAAKDLVLGPSGVLQGIRPGKCYVDMSTVDADTVTELAQVIVSRGGRFLEAPVSGNQQLSNDGMLVILAAGDRGLYEDCSSCFQAMGKTSFFLGEVGNAAKMMLIVNMVQGSFMATIAEGLTLAQVTGQSQQTLLDILNQGQLASIFLDQKCQNILQGNFKPDFYLKYIQKDLRLAIALGDAVNHPTPMAAAANEVYKRAKALDQSDNDMSAVYRAYIH
On to B3, for which the Y2H matrices result with HCV proteins was “+”. In assay [1], the “Interaction with viral protein” value is “NS3”. Further, in assay [2], the “IMAP Y2H IMAP1 (number of IST)” value was determined as 2 and the “IMAP Y2H IMAP2 (number of IST)” value came out at 11.

B4: NID1 (protein, UniProt P14543 29-1247, looked up)
Nidogen-1: LSRQELFPFGPGQGDLELEDGDDFVSPALELSGALRFYDRSDIDAVYVTTNGIIATSEPPAKESHPGLFPPTFGAVAPFLADLDTTDGLGKVYYREDLSPSITQRAAECVHRGFPEISFQPSSAVVVTWESVAPYQGPSRDPDQKGKRNTFQAVLASSDSSSYAIFLYPEDGLQFHTTFSKKENNQVPAVVAFSQGSVGFLWKSNGAYNIFANDRESVENLAKSSNSGQQGVWVFEIGSPATTNGVVPADVILGTEDGAEYDDEDEDYDLATTRLGLEDVGTTPFSYKALRRGGADTYSVPSVLSPRRAATERPLGPPTERTRSFQLAVETFHQQHPQVIDVDEVEETGVVFSYNTDSRQTCANNRHQCSVHAECRDYATGFCCSCVAGYTGNGRQCVAEGSPQRVNGKVKGRIFVGSSQVPIVFENTDLHSYVVMNHGRSYTAISTIPETVGYSLLPLAPVGGIIGWMFAVEQDGFKNGFSITGGEFTRQAEVTFVGHPGNLVIKQRFSGIDEHGHLTIDTELEGRVPQIPFGSSVHIEPYTELYHYSTSVITSSSTREYTVTEPERDGASPSRIYTYQWRQTITFQECVHDDSRPALPSTQQLSVDSVFVLYNQEEKILRYALSNSIGPVREGSPDALQNPCYIGTHGCDTNAACRPGPRTQFTCECSIGFRGDGRTCYDIDECSEQPSVCGSHTICNNHPGTFRCECVEGYQFSDEGTCVAVVDQRPINYCETGLHNCDIPQRAQCIYTGGSSYTCSCLPGFSGDGQACQDVDECQPSRCHPDAFCYNTPGSFTCQCKPGYQGDGFRCVPGEVEKTRCQHEREHILGAAGATDPQRPIPPGLFVPECDAHGHYAPTQCHGSTGYCWCVDRDGREVEGTRTRPGMTPPCLSTVAPPIHQGPAVPTAVIPLPPGTHLLFAQTGKIERLPLEGNTMRKTEAKAFLHVPAKVIIGLAFDCVDKMVYWTDITEPSIGRASLHGGEPTTIIRQDLGSPEGIAVDHLGRNIFWTDSNLDRIEVAKLDGTQRRVLFETDLVNPRGIVTDSVRGNLYWTDWNRDNPKIETSYMDGTNRRILVQDDLGLPNGLTFDAFSSQLCWVDAGTNRAECLNPSQPSRRKALEGLQYPFAVTSYGKNLYFTDWKMNSVVALDLAISKETDAFQPHKQTRLYGITTALSQCPQGHNYCSVNNGGCTHLCLATPGSRTCRCPDNTLGVDCIEQK
For B4, in the assay with HCV proteins, the Y2H matrices entry is reported as “+”. For the same molecule, the “Interaction with viral protein” value in assay [1] is recorded as “NS3”. For the same molecule, the “IMAP Y2H IMAP1 (number of IST)” value in assay [2] is 2.

B5: NID2 (protein, UniProt Q14112 31-1375, looked up)
Nidogen-2: LHPDELFPHGESWGDQLLQEGDDESSAVVKLANPLHFYEARFSNLYVGTNGIISTQDFPRETQYVDYDFPTDFPAIAPFLADIDTSHGRGRVLYREDTSPAVLGLAARYVRAGFPRSARFTPTHAFLATWEQVGAYEEVKRGALPSGELNTFQAVLASDGSDSYALFLYPANGLQFLGTRPKESYNVQLQLPARVGFCRGEADDLKSEGPYFSLTSTEQSVKNLYQLSNLGIPGVWAFHIGSTSPLDNVRPAAVGDLSAAHSSVPLGRSFSHATALESDYNEDNLDYYDVNEEEAEYLPGEPEEALNGHSSIDVSFQSKVDTKPLEESSTLDPHTKEGTSLGEVGGPDLKGQVEPWDERETRSPAPPEVDRDSLAPSWETPPPYPENGSIQPYPDGGPVPSEMDVPPAHPEEEIVLRSYPASGHTTPLSRGTYEVGLEDNIGSNTEVFTYNAANKETCEHNHRQCSRHAFCTDYATGFCCHCQSKFYGNGKHCLPEGAPHRVNGKVSGHLHVGHTPVHFTDVDLHAYIVGNDGRAYTAISHIPQPAAQALLPLTPIGGLFGWLFALEKPGSENGFSLAGAAFTHDMEVTFYPGEETVRITQTAEGLDPENYLSIKTNIQGQVPYVSANFTAHISPYKELYHYSDSTVTSTSSRDYSLTFGAINQTWSYRIHQNITYQVCRHAPRHPSFPTTQQLNVDRVFALYNDEERVLRFAVTNQIGPVKEDSDPTPGNPCYDGSHMCDTTARCHPGTGVDYTCECASGYQGDGRNCVDENECATGFHRCGPNSVCINLPGSYRCECRSGYEFADDRHTCILITPPANPCEDGSHTCAPAGQARCVHHGGSTFSCACLPGYAGDGHQCTDVDECSENRCHPAATCYNTPGSFSCRCQPGYYGDGFQCIPDSTSSLTPCEQQQRHAQAQYAYPGARFHIPQCDEQGNFLPLQCHGSTGFCWCVDPDGHEVPGTQTPPGSTPPHCGPSPEPTQRPPTICERWRENLLEHYGGTPRDDQYVPQCDDLGHFIPLQCHGKSDFCWCVDKDGREVQGTRSQPGTTPACIPTVAPPMVRPTPRPDVTPPSVGTFLLYTQGQQIGYLPLNGTRLQKDAAKTLLSLHGSIIVGIDYDCRERMVYWTDVAGRTISRAGLELGAEPETIVNSGLISPEGLAIDHIRRTMYWTDSVLDKIESALLDGSERKVLFYTDLVNPRAIAVDPIRGNLYWTDWNREAPKIETSSLDGENRRILINTDIGLPNGLTFDPFSKLLCWADAGTKKLECTLPDGTGRRVIQNNLKYPFSIVSYADHFYHTDWRRDGVVSVNKHSGQFTDEYLPEQRSHLYGITAVYPYCPTGRK
As to B5, the Y2H matrices entry in the assay with HCV proteins is reported as “+”. For the same molecule, the “Interaction with viral protein” value in assay [1] is on record as “NS3”. Further, the “IMAP Y2H IMAP1 (number of IST)” value in assay [2] amounted to 2.

B6: PCYT2 (protein, UniProt Q99447 1-389, looked up)
Ethanolamine-phosphate …: MIRNGRGAAGGAEQPGPGGRRAVRVWCDGCYDMVHYGHSNQLRQARAMGDYLIVGVHTDEEIAKHKGPPVFTQEERYKMVQAIKWVDEVVPAAPYVTTLETLDKYNCDFCVHGNDITLTVDGRDTYEEVKQAGRYRECKRTQGVSTTDLVGRMLLVTKAHHSSQEMSSEYREYADSFGKCPGGRNPWTGVSQFLQTSQKIIQFASGKEPQPGETVIYVAGAFDLFHIGHVDFLEKVHRLAERPYIIAGLHFDQEVNHYKGKNYPIMNLHERTLSVLACRYVSEVVIGAPYAVTAELLSHFKVDLVCHGKTEIIPDRDGSDPYQEPKRRGIFRQIDSGSNLTTDLIVQRIITNRLEYEARNQKKEAKELAFLEAARQQAAQPLGERDGDF
Turning to B6, the Y2H matrices result in the assay with HCV proteins is “+”. Also, the “Interaction with viral protein” value in assay [1] is recorded as “NS3”. The “IMAP Y2H IMAP1 (number of IST)” value in assay [2] turned out to be 1.
